Laboratory results: US20090082270A1 (ACCELERON PHARMA, published 2009)

T1: human Cerberus (human, UniProt O95813 18-267, limits assumed)
T1 construct: it includes the native leader
T1 sequence: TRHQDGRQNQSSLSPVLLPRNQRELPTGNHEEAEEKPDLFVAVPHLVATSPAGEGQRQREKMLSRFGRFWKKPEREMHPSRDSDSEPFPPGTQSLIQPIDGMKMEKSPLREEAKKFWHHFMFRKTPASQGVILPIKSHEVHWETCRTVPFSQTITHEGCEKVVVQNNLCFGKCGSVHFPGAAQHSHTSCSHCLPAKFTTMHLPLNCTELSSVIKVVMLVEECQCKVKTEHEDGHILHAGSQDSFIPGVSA

B1: Activin A (ligand, UniProt P08476 311-426, looked up)
chain: GLECDGKVNICCKKQFFVSFKDIGWNDWIIAPSGYHANYCEGECPSHIAGTSGSSLSFHSTVINHYRMRGHSPFANLKSCCVPTKLRPMSMLYYDDGQNIIKKDIQNMIVEECGCS
B2: Human Coco, full length, Fc (TGGG linker and mFc) (Fc fusion)
chain: GRPEPQSPRPQSWAAANQTWALGPGALPPLVPASALGSWKAFLGLQKARQLGMGRLQRGQDEVAAVTLPLNPQEVIQGMCKAVPFVQVFSRPGCSAIRLRNHLCFGHCSSLYIPGSDPTPLVLCNSCMPARKRWAPVVLWCLTGSSASRRRVKISTMLIEGCHCSPKATGGGTHTCPPCPAPELLGGPSVFLFPPKPKDTLMISRTPEVTCVVVDVSHEDPEVKFNWYVDGVEVHNAKTKPREEQYNSTYRVVSVLTVLHQDWLNGKEYKCKVSNKALPVPIEKTISKAKGQPREPQVYTLPPSREEMTKNQVSLTCLVKGFYPSDIAVEWESNGQPENNYKTTPPVLDSDGSFFLYSKLTVDKSRWQQGNVFSCSVMHEALHNHYTQKSLSLSPGK
notes: Tested as conditioned medium; also called Coco-mFc; human Coco-mFc

Tests used:
[1] = target: T1, human Cerberus; assay: "similar experiments" to the A-204 reporter gene assay; method not further described
[2] = target: B1; assay: as above

Binder	binding result [1]	binding result [2]
B1	no binding	–
B2	–	no binding
